Patent US20140303084
Substitutions are numbered along the chain they refer to.

Key:
KLTCAASYCWLF = tested on: T1, KLTCAASYCWLF
T1 sequence: KLTCAASYCWLF

KLTCLASYCLLF = tested on: T2, KLTCLASYCLLF
T2 sequence: KLTCLASYCLLF

[1] = tested on: T3, RRAPGKLTCL-MeAla-SYCWLFWTGIA
T3 sequence: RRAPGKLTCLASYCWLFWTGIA

[2] = tested on: T4, PRIRTSGPGSRSASGKLTCLASYCWLFWTGIA
T4 sequence: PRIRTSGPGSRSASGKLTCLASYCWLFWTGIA

KLTCLASYCWIF = tested on: T5, KLTCLASYCWIF
T5 sequence: KLTCLASYCWIF

compound 18 = tested on: T6, compound 18
T6 sequence: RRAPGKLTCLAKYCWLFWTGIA

[3] = tested on: T7, (KLTCLASYCWLF)2═N-O-(CH2)3-O-N═
T7 sequence: KLTCLASYCWLF

RRCPGKLQALASYCWLFWTGIA = tested on: T8, RRCPGKLQALASYCWLFWTGIA
T8 sequence: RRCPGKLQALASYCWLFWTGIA

QQRQIKMSCLASYCWLFGSIPW = tested on: T9, QQRQIKMSCLASYCWLFGSIPW
T9 sequence: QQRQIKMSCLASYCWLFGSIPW

[4] = tested on: T10, RRAPG-k-NMeLeu-TCLASYCWLFWTGIA
T10 sequence: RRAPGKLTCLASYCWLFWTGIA

PGKLQCLASYCWLFWTGIA = tested on: T11, PGKLQCLASYCWLFWTGIA
T11 sequence: PGKLQCLASYCWLFWTGIA

RRAPGKLQCLASYCWLFWTAIA = tested on: T12, RRAPGKLQCLASYCWLFWTAIA
T12 sequence: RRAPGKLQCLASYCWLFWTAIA

compound 5 = tested on: T13, compound 5
T13 sequence: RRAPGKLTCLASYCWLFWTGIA

ARAPGKLQCLASYCWLFWTGIA = tested on: T14, ARAPGKLQCLASYCWLFWTGIA
T14 sequence: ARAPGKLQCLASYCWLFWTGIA

[5] = tested on: T15, SKQGRPISSDrRAAGKSTCLASYCWLFWTGIA
T15 sequence: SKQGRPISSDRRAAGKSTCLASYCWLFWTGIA

RAPGKLQCLASYCWLFWTGIA = tested on: T16, RAPGKLQCLASYCWLFWTGIA
T16 sequence: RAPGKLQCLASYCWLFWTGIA

[6] = tested on: T17, RRAPGKLTCLASYCWLFWTG-MeIle-A
T17 sequence: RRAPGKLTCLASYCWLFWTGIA

KLtCLASYCWLF [7] = tested on: T18, KLtCLASYCWLF
T18 sequence: KLTCLASYCWLF

[8] = tested on: T19, RRAPGKLTCLASYCWLF YTGIA HGHPMEHRKS
T19 sequence: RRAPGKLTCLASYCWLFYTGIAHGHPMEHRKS

KLTCLASYC-Nal-LF = tested on: T20, KLTCLASYC-Nal-LF
T20 sequence: KLTCLASYCXLF

kLTCLASYCWLF [9] = tested on: T21, kLTCLASYCWLF
T21 sequence: KLTCLASYCWLF

KLTCL-Abu-SYCWLF = tested on: T22, KLTCL-Abu-SYCWLF
T22 sequence: KLTCLXSYCWLF

KLTCLASYCFLF = tested on: T23, KLTCLASYCFLF
T23 sequence: KLTCLASYCFLF

[10] = tested on: T24, RRFVGGSLSQ RRAPG KLTCLASYCWLFWTGIA
T24 sequence: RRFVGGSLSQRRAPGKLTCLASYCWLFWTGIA

[11] = tested on: T25, CNPRGD-Tyr(OEt)-RC-PEG16-Lys(PEG2-Biotin)-PEG16-rRAPGKLTCLASYCWLFWTGIA
T25 sequence: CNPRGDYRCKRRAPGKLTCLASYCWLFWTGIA

TGS-KLTCLASYCWLF-APG = tested on: T26, TGS-KLTCLASYCWLF-APG
T26 sequence: TGSKLTCLASYCWLFAPG

[12] = tested on: T27, rRAPGKLTCLASYCWLFWTGIA-PEG4-C(N-PEG5k maleimide)
T27 sequence: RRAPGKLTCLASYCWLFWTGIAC

[13] = tested on: T28, RRAPGKLTCLASYAWCFWTGIA-COOH
T28 sequence: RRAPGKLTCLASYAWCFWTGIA

RRAPGKLTCLASYcWLFWTGIA = tested on: T29, RRAPGKLTCLASYcWLFWTGIA
T29 sequence: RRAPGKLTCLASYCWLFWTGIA

compound C = tested on: T30, compound C
T30 sequence: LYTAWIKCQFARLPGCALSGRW

[14] = tested on: T31, RRAPGKLTCLASYCWLF LTGWA RVPLPPRPHP
T31 sequence: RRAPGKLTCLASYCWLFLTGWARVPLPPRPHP

KLACLASYCWLF = tested on: T32, KLACLASYCWLF
T32 sequence: KLACLASYCWLF

[15] = tested on: T33, PRIRTVGPGSRSASGKLTCIASYCWLFWTGIA
T33 sequence: T4 sequence with S6V, L20I

[16] = tested on: T34, SKQGRPISSDrRASGKSTCLASYCWLFWTGIA
T34 sequence: T15 sequence with A14S

KLTCLASYCW-MeLeu-F = tested on: T35, KLTCLASYCW-MeLeu-F
T35 sequence: KLTCLASYCWLF

KLT-HCy-LASYCWLF = tested on: T36, KLT-HCy-LASYCWLF
T36 sequence: KLTXLASYCWLF

[17] = tested on: T37, QRAGRVARLH RRAPN KLTCLASYCWLFWTGIA
T37 sequence: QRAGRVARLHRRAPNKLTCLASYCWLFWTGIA

[18] = tested on: T38, RRAPGKLTCLASYCWLF WAGIA PHRPLKERVR
T38 sequence: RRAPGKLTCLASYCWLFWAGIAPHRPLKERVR

[19] = tested on: T39, PRIRTVGPGSRSASGKLTCLASYCWLAWTGIA
T39 sequence: T4 sequence with S6V, F27A

LTWREKLACLASYCWLFLWGAP = tested on: T40, LTWREKLACLASYCWLFLWGAP
T40 sequence: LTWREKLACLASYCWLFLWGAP

RRRRRKLTCLASYCWLFRRRRR = tested on: T41, RRRRRKLTCLASYCWLFRRRRR
T41 sequence: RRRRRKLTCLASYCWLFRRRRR

[20] = tested on: T42, RRAPGKLTCLASYCWLF WTGWA VLARVPVGWT
T42 sequence: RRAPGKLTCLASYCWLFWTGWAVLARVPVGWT

rRAAGKLTCLASACWLFATGIA = tested on: T43, rRAAGKLTCLASACWLFATGIA
T43 sequence: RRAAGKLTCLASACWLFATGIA

[21] = tested on: T44, RRAPGKCTALASYAWCFWTGIA-COOH
T44 sequence: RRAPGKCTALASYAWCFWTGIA

KLTcLASYCWLF [22] = tested on: T45, KLTcLASYCWLF
T45 sequence: KLTCLASYCWLF

[23] = tested on: T46, ═N-O-(CH2)3-O-N═(COCH2CH2CO-KLTCLASYCWLF)2
T46 sequence: KLTCLASYCWLF

[24] = tested on: T47, PRIRTVGSGSRSASGKLTCLASYCWLFWTGIA
T47 sequence: T4 sequence with S6V, P8S

[25] = tested on: T48, RRAPGKLK(PEG2-Biotin)CLASYCWLFWTGIA
T48 sequence: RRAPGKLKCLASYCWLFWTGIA

VSGTGKLTCLASYCWLFQLGSF = tested on: T49, VSGTGKLTCLASYCWLFQLGSF
T49 sequence: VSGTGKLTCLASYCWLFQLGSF

[26] = tested on: T50, RPRSSAHDRP RRAAG KLTCLASYCWLFWTGIA
T50 sequence: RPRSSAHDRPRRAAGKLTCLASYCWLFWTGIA

With human Factor IXa the “Vmax, FXa generation assay; (++) means 1-2” value (shortened to “Vmax … (++) means 1-2”) (KLTCAASYCWLF) was “(++)”, the Vmax, FXa generation assay (KLTCLASYCLLF) was over 2 and the “Vmax … (++) means 1-2” value [1] was “(++)”. It also gave a Vmax, FXa generation assay [2] of over 3, a Vmax, FXa generation assay (KLTCLASYCWIF) of over 2 and a Vmax, FXa generation assay with hFIXa (compound 18) of over 2. The Vmax, FXa generation assay [3] was over 3, the Vmax, FXa generation assay (RRCPGKLQALASYCWLFWTGIA) was over 2 and the “Vmax … (++) means 1-2” value (QQRQIKMSCLASYCWLFGSIPW) was “(++)”. It also gave a Vmax, FXa generation assay [4] of over 3, a Vmax, FXa generation assay (PGKLQCLASYCWLFWTGIA) of over 2 and a Vmax, FXa generation assay (RRAPGKLQCLASYCWLFWTAIA) of over 2. For the same substance, the KM (nM) of hFIXa for FX (compound 5) was 11 nM, the Vmax, FXa generation assay with hFIXa (compound 5) was over 2 and the kcat (min^-1) of hFIXa for FX, compound at 1 µM (compound 5) was 0.0179 min⁻¹. For the same substance, the Δ KM (Km compound/Km buffer) (compound 5) was 0.14, the Δ kM of FIXa, FXa generation assay (compound 5) was 0.14 and the Δ kcat of FIXa, FXa generation assay (compound 5) was 199 fold. For the same substance, the Vmax, FXa generation assay (ARAPGKLQCLASYCWLFWTGIA) was over 2, the Vmax, FXa generation assay [5] was over 3 and the “Vmax … (++) means 1-2” value (RAPGKLQCLASYCWLFWTGIA) was “(++)”. For the same substance, the Vmax, FXa generation assay [6] was over 2.3, the Vmax, FXa generation assay (KLtCLASYCWLF [7]) was over 2 and the Vmax, FXa generation assay [8] was over 3. For the same substance, the Vmax, FXa generation assay (KLTCLASYC-Nal-LF) was over 3, the Vmax, FXa generation assay (kLTCLASYCWLF [9]) was over 2 and the Vmax, FXa generation assay (KLTCL-Abu-SYCWLF) was over 2. For the same substance, the Vmax, FXa generation assay (KLTCLASYCFLF) was over 3, the Vmax, FXa generation assay [10] was over 3 and the Vmax, FXa generation assay [11] was over 3. It also gave a Vmax, FXa generation assay (TGS-KLTCLASYCWLF-APG) of over 2, a Vmax, FXa generation assay [12] of over 2 and a Vmax, FXa generation assay [13] of over 2. The “Vmax … (++) means 1-2” value (RRAPGKLTCLASYcWLFWTGIA) was “(++)”, the KM (nM) of hFIXa for FX (compound C) was 99 nM and the Vmax, FXa generation assay with hFIXa (compound C) was over 0.6. For the same substance, the kcat (min^-1) of hFIXa for FX, scrambled control at 10.0 µM (compound C) was 0.00044 min⁻¹, the “Vmax … (++) means 1-2” value [14] was “(++)” and the Vmax, FXa generation assay (KLACLASYCWLF) was over 2. The Vmax, FXa generation assay [15] was over 2, the Vmax, FXa generation assay [16] was over 3 and the Vmax, FXa generation assay (KLTCLASYCW-MeLeu-F) was over 2. The Vmax, FXa generation assay (KLT-HCy-LASYCWLF) was over 2, the Vmax, FXa generation assay [17] was over 2 and the Vmax, FXa generation assay [18] was over 2. For the same substance, the Vmax, FXa generation assay [19] was over 3, the “Vmax … (++) means 1-2” value (LTWREKLACLASYCWLFLWGAP) was “(++)” and the Vmax, FXa generation assay (RRRRRKLTCLASYCWLFRRRRR) was over 2. The Vmax, FXa generation assay [20] was over 2, the “Vmax … (++) means 1-2” value (rRAAGKLTCLASACWLFATGIA) was “(++)” and the Vmax, FXa generation assay [21] was over 2. For the same substance, the Vmax, FXa generation assay (KLTcLASYCWLF [22]) was over 2, the Vmax, FXa generation assay [23] was over 3 and the Vmax, FXa generation assay [24] was over 3. For the same substance, the “Vmax … (++) means 1-2” value [25] was “(++)”, the “Vmax … (++) means 1-2” value (VSGTGKLTCLASYCWLFQLGSF) was “(++)” and the Vmax, FXa generation assay [26] was over 3.
